To fix the notation:
B1: Protein piccolo, residues 1058 to 1114; numbered along this chain, Q9Y6V0 (parent)
chain: TCPLCKTELNIGSKDPPNFNTCTECKNQVCNLCGFNPTPHLTEIQEWLCLNCQTQRA

± gives the uncertainty stated by the source.

In the data set the parent is B1. Kind of data set: abundance fitness (aPCA) (normalised: wild type 0, dead -1); higher = more abundant; growth selection in yeast, the domain comes from the species named. Particulars: Homo sapiens.
As for TCPLCKTELNIGSKDPPNFNTCTECKNQVCNLCGFNPTPHLTEIQEWWCLNCQTQRA, the abundance fitness is -0.061 ± 0.13.
In the case of TCPLCKTELNIGSKDPPNFNTCTECKNQVCNLCGFNPTPHLTEIQEWYCLNCQTQRA it was -0.112 ± 0.17; in that of TCPLCKTELNIGSKDPPNFNTCTECKNQVCNLCGFNPTPHLTEIQEWLCLMCQTQRA, -0.557 ± 0.2.
In the case of TCPLCKTELNIGSKDPPNFNTCTECKNQVCNLCGFNPTPHLTEIQEWLCLKCQTQRA it was -0.063 ± 0.22; in that of TCPLCKTELNIGSKDPPNFNTCTECKNQVCNLCGFNPTPHLTEIQEWLCLDCQTQRA, -0.166 ± 0.24.
In the case of TCPLCKTELNIGSKDPPNFNTCTECKNQVCNLCGFNPTPHLTEIQEWLCLECQTQRA, the abundance fitness is -0.099 ± 0.21.
In the case of TCPLCKTELNIGSKDPPNFNTCTECKNQVCNLCGFNPTPHLTEIQEWLCLHCQTQRA it was -0.146 ± 0.25.
To TCPLCKTELNIGSKDPPNFNTCTECKNQVCNLCGFNPTPHLTEIQEWLCLGCQTQRA belongs -0.091 ± 0.14; to TCPLCKTELNIGSKDPPNFNTCTECKNQVCNLCGFNPTPHLTEIQEWLCLPCQTQRA, -0.284 ± 0.17; to TCPLCKTELNIGSKDPPNFNTCTECKNQVCNLCGFNPTPHLTEIQEWLCLFCQTQRA, -0.306 ± 0.12.
As for TCPLCKTELNIGSKDPPNFNTCTECKNQVCNLCGFNPTPHLTEIQEWLCLACQTQRA, the abundance fitness is -0.015 ± 0.16.
To TCPLCKTELNIGSKDPPNFNTCTECKNQVCNLCGFNPTPHLTEIQEWLCLICQTQRA belongs -0.566 ± 0.2; to TCPLCKTELNIGSKDPPNFNTCTECKNQVCNLCGFNPTPHLTEIQEWLCMNCQTQRA, -0.565 ± 0.31; to TCPLCKTELNIGSKDPPNFNTCTECKNQVCNLCGFNPTPHLTEIQEWLCQNCQTQRA, 0.15 ± 0.25.
To TCPLCKTELNIGSKDPPNFNTCTECKNQVCNLCGFNPTPHLTEIQEWLCENCQTQRA belongs 0.157 ± 0.23.
In the case of TCPLCKTELNIGSKDPPNFNTCTECKNQVCNLCGFNPTPHLTEIQEWLCWNCQTQRA, the abundance fitness was -0.215 ± 0.12.
To TCPLCKTELNIGSKDPPNFNTCTECKNQVCNLCGFNPTPHLTEIQEWLCCNCQTQRA belongs -0.04 ± 0.13; to TCPLCKTELNIGSKDPPNFNTCTECKNQVCNLCGFNPTPHLTEIQEWLCSNCQTQRA, 0.141 ± 0.097; to TCPLCKTELNIGSKDPPNFNTCTECKNQVCNLCGFNPTPHLTEIQEWLCHNCQTQRA, 0.145 ± 0.16.
In the case of TCPLCKTELNIGSKDPPNFNTCTECKNQVCNLCGFNPTPHLTEIQEWLCVNCQTQRA it was 0.102 ± 0.099.
To TCPLCKTELNIGSKDPPNFNTCTECKNQVCNLCGFNPTPHLTEIQEWLCYNCQTQRA belongs -0.239 ± 0.25; to TCPLCKTELNIGSKDPPNFNTCTECKNQVCNLCGFNPTPHLTEIQEWLCDNCQTQRA, 0.208 ± 0.17; to TCPLCKTELNIGSKDPPNFNTCTECKNQVCNLCGFNPTPHLTEIQEWLCPNCQTQRA, 0.329 ± 0.17.
Take TCPLCKTELNIGSKDPPNFNTCTECKNQVCNLCGFNPTPHLTEIQEWLCGNCQTQRA: the abundance fitness amounted to 0.084 ± 0.092.
In the case of TCPLCKTELNIGSKDPPNFNTCTECKNQVCNLCGFNPTPHLTEIQEWLCFNCQTQRA it was -0.25 ± 0.14; in that of TCPLCKTELNIGSKDPPNFNTCTECKNQVCNLCGFNPTPHLTEIQEWLCTNCQTQRA, 0.208 ± 0.14; in that of TCPLCKTELNIGSKDPPNFNTCTECKNQVCNLCGFNPTPHLTEIQEWLCINCQTQRA, -0.173 ± 0.23.
To TCPLCKTELNIGSKDPPNFNTCTECKNQVCNLCGFNPTPHLTEIQEWLCNNCQTQRA belongs 0.019 ± 0.14; to TCPLCKTELNIGSKDPPNFNTCTECKNQVCNLCGFNPTPHLTEIQEWLCANCQTQRA, 0.129 ± 0.12; to TCPLCKTELNIGSKDPPNFNTCTECKNQVCNLCGFNPTPHLTEIQEWLCKNCQTQRA, 0.078 ± 0.19.
For TCPLCKTELNIGSKDPPNFNTCTECKNQVCNLCGFNPTPHLTEIQEWLCRNCQTQRA, the abundance fitness is 0.182 ± 0.098.
In the case of TCPLCKTELNIGSKDPPNFNTCTECKNQVCNLCGFNPTPHLTEIQEWLILNCQTQRA it was -1.05 ± 0.28; in that of TCPLCKTELNIGSKDPPNFNTCTECKNQVCNLCGFNPTPHLTEIQEWLGLNCQTQRA, -0.934 ± 0.14.
In the case of TCPLCKTELNIGSKDPPNFNTCTECKNQVCNLCGFNPTPHLTEIQEWLALNCQTQRA it was -0.66 ± 0.13; in that of TCPLCKTELNIGSKDPPNFNTCTECKNQVCNLCGFNPTPHLTEIQEWLWLNCQTQRA, -0.884 ± 0.14; in that of TCPLCKTELNIGSKDPPNFNTCTECKNQVCNLCGFNPTPHLTEIQEWLTLNCQTQRA, -1.06 ± 0.26.
As to TCPLCKTELNIGSKDPPNFNTCTECKNQVCNLCGFNPTPHLTEIQEWLPLNCQTQRA, the abundance fitness is -0.418 ± 0.14.
To TCPLCKTELNIGSKDPPNFNTCTECKNQVCNLCGFNPTPHLTEIQEWLLLNCQTQRA belongs -1 ± 0.14; to TCPLCKTELNIGSKDPPNFNTCTECKNQVCNLCGFNPTPHLTEIQEWLELNCQTQRA, -1.01 ± 0.24; to TCPLCKTELNIGSKDPPNFNTCTECKNQVCNLCGFNPTPHLTEIQEWLQLNCQTQRA, -0.927 ± 0.17.
In the case of TCPLCKTELNIGSKDPPNFNTCTECKNQVCNLCGFNPTPHLTEIQEWLHLNCQTQRA it was -0.761 ± 0.18; in that of TCPLCKTELNIGSKDPPNFNTCTECKNQVCNLCGFNPTPHLTEIQEWLRLNCQTQRA, -0.782 ± 0.13; in that of TCPLCKTELNIGSKDPPNFNTCTECKNQVCNLCGFNPTPHLTEIQEWLFLNCQTQRA, -0.793 ± 0.24.
As for TCPLCKTELNIGSKDPPNFNTCTECKNQVCNLCGFNPTPHLTEIQEWLVLNCQTQRA, the abundance fitness was -0.849 ± 0.14.
To TCPLCKTELNIGSKDPPNFNTCTECKNQVCNLCGFNPTPHLTEIQEWLNLNCQTQRA belongs -0.618 ± 0.28; to TCPLCKTELNIGSKDPPNFNTCTECKNQVCNLCGFNPTPHLTEIQEWLDLNCQTQRA, -0.597 ± 0.2; to TCPLCKTELNIGSKDPPNFNTCTECKNQVCNLCGFNPTPHLTEIQEWLYLNCQTQRA, -0.958 ± 0.17.

These data come from the Human Domainome abundance scans (Beltran et al. 2025).
